# What was measured:
# Assay in all cases: purified protein
# Assay type in all cases: biochemical, Arabidopsis thaliana
# [1] = substrate: N[C@@H](Cc1c[nH]cn1)C(=O)O; settings: 20 mM alpha-ketoglutarate, 0.2 mM PLP, 100 mM HEPES pH 8.0, 30 °C
# [2] = substrate: N[C@@H](Cc1ccccc1)C(=O)O; settings: 0.2 mM PLP, 100 mM HEPES pH 8.0, 30 °C
# [3] = substrate: N[C@@H](Cc1c[nH]c2ccccc12)C(=O)O; settings: 0.2 mM PLP, 100 mM HEPES pH 8.0, 30 °C
# [4] = substrate: N[C@@H](Cc1ccc(O)cc1)C(=O)O; settings: 0.2 mM PLP, 100 mM HEPES pH 8.0, 30 °C
Protein,Km [1],kcat [1],Km ([2]; 20 mM pyruvate),kcat ([2]; 20 mM pyruvate),Km ([3]; 20 mM pyruvate),kcat ([3]; 20 mM pyruvate),Km ([4]; 20 mM pyruvate),kcat ([4]; 20 mM pyruvate),Km ([2]; 20 mM alpha-ketoglutarate),kcat ([2]; 20 mM alpha-ketoglutarate),Km ([3]; 20 mM alpha-ketoglutarate),kcat ([3]; 20 mM alpha-ketoglutarate),Km ([4]; 20 mM alpha-ketoglutarate),kcat ([4]; 20 mM alpha-ketoglutarate)
AtTAA1 (Arabidopsis thaliana) (protein) MVKLENSRKPEKISNKNIPMSDFVVNLDHGDPTAYEEYWRKMGDRCTVTIRGCDLMSYFSDMTNLCWFLEPELEDAIKDLHGVVGNAATEDRYIVVGTGSTQLCQAAVHALSSLARSQPVSVVAAAPFYSTYVEETTYVRSGMYKWEGDAWGFDKKGPYIELVTSPNNPDGTIRETVVNRPDDDEAKVIHDFAYYWPHYTPITRRQDHDIMLFTFSKITGHAGSRIGWALVKDKEVAKKMVEYIIVNSIGVSKESQVRTAKILNVLKETCKSESESENFFKYGREMMKNRWEKLREVVKESDAFTLPKYPEAFCNYFGKSLESYPAFAWLGTKEETDLVSELRRHKVMSRAGERCGSDKKHVRVSMLSREDVFNVFLERLANMKLIKSIDL,11 ± 2 mM,0.6 ± 0.1 s⁻¹,13 ± 3 mM,2.0 ± 0.3 s⁻¹,1.2 ± 0.2 mM,4.2 ± 0.2 s⁻¹,8 ± 3 mM,13.2 ± 0.3 s⁻¹,,,,,,
AtTAR1 (Arabidopsis thaliana) (protein) MMVGCENSKKSDSGSNEDKSLSDDIINLDQGDPTAFQEYWMKKKDRCTVVIPAWDLMSYFSDTKNVCWFLEPELEKAIKALHGAIGNAATEERYIVVGTGSSQLCQAALFALSSLSEVKPVSIVAAVPYYSTYVEEASYLQSTLYKWEGDARTFDKKGPYIELVTSPNNPDGIMREPVVNRREGGKVIHDLAYYWPHYTPITRRQDHDLMLFTFSKITGHAGSRIGWALVKDIEVAKKMVHYLTINSIGVSKESQTRATTILNELTKTCRTQSESFFEYGYEKMKSRWERLREVVESGDAFTLPNYPQDFCNFFGKTLSTSPAFAWLGYKEERDLGSLLKEKKVLTRGGDRCGCNKRYVRVSMLSRDDDFDVSLQRLATIKDLKCVEP,30 ± 6 mM,1.8 ± 0.1 s⁻¹,,,,,,,2.6 ± 0.3 mM,5.0 ± 0.2 s⁻¹,0.07 ± 0.02 mM,4.5 ± 0.2 s⁻¹,1 ± 3 mM,4.0 ± 0.3 s⁻¹

# Source: paper PMC9957770, “Mass spectrometry imaging–based assays for aminotransferase activity reveal a broad substrate spectrum for a previously uncharacterized enzyme” (The Journal of Biological Chemistry, 2023)
